Substrate: O=[N+]([O-])c1ccccc1O[C@@H]1O[C@H](COP(=O)(O)O)[C@H](O)[C@H](O)[C@H]1O
Assay: purified protein
Format: biochemical, Lacticaseibacillus casei
Settings: activity assay in 100 mM Tris-HCl pH 7.0, 37 °C, kinetics as in cited earlier work

B1: phospho-β-galactosidase LacG; 6x(His)LacG (Lacticaseibacillus casei BL23) (protein)
chain: MSKQLPQDFVMGGATAAYQVEGATKEDGKGRVLWDDFLDKQGRFKPDPAADFYHRYDEDLALAEKYGHQVIRVSIAWSRIFPDGAGEVEPRGVAFYHKLFADCAAHHIEPFVTLHHFDTPERLHEAGDWLSQEMLDDFVAYAKFCFEEFSEVKYWITINEPTSMAVQQYTSGTFPPAESGRFDKTFQAEHNQMVAHARIVNLYKSMQLGGQIGIVHALQTVYPYSDSAVDHHAAELQDALENRLYLDGTLAGEYHQETLALVKEILDANHQPMFQSTPQEMKAIDEAAHQLDFVGVNNYFSKWLRAYHGKSETIHNGDGTKGSSVARLQGVGEEKLPDGIETTDWDWSIYPRGMYDILMRIHNDYPLVPVTYVTENGIGLKESLPENATPDTVIEDPKRIDYVKKYLSAMADAIHDGANVKGYFIWSLQDQFSWTNGYSKRYGLFFVDFPTQNRYIKQSAEWFKSVSETHIIPD
notes: full coding region in pQE80 (BamHI/PstI), 6xHis tag (N-terminal by vector), E. coli BE50 host, purified; 55 kDa, calculated tagged mass 55,305 Da
- Km: 3000 µM

From publication PMC5940811, “The lactose operon from Lactobacillus casei is involved in the transport and metabolism of the human milk oligosaccharide core-2 N-acetyllactosamine” (Scientific Reports, 2018)
